Measurements published in US20060240053A1 (L OREAL, published 2006).

Target: the molecule itself
Test: BS3 chemical crosslinking, then gel filtration and SDS-PAGE (self-association)
Method: A study of the crosslinking using BS3 (Pierce) is carried out on activated SASPase (SEQ ID NO: 6), obtained by acidification and purification by exclusion chromatography (gel filtration) of the recombinant fusion protein GST-SASPase Δ1-84.
1 μg of BS3 in 60 μl of 50 mM phosphate buffer, pH 7, containing 150 mM NaCl, 0.1% TX100 and 5 mM EDTA is added to the activated SASPase (SEQ ID NO: 6) obtained in example III, placed in ice. A control sample free of BS3 is also prepared. After 90 min, 2 μl of 1 M Tris-HCl, pH 8, are introduced into the reaction media in order to stop the reaction. The products obtained are then analyzed by gel filtration and by SDS-PAGE electrophoresis.

B1: activated SASPase (SEQ ID NO: 6) (enzyme)
chain: ANSMGKGYYLKGKIGKVPVRFLVDSGAQVSVVHPNLWEEVTDGDLDTLQPFENVVKVANGAEMKILGVWDTAVSLGKLKLKAQFLVANASAEEAIIGTDVLQDHNAILDFEHRTCTLKGKKFRLLPVGGSLEDEFDLE
notes: also called 12 kD SASPase
- binding result: binds
